In patent US20220056104A1 (Janssen / Centocor, published 2022):
Changes are numbered by the printed parent chain. Numbers in names are those of the source.

T1: Recombinant DR3-Fc (R&D Systems, cat. #943-D3) (UniProt Q93038 25-199, limits assumed)
T1 construct: dimeric MW~92 kDa; also called DR3 receptor; Fc-DR3; not shown: Fc part of the bought fusion
T1 sequence (looked up): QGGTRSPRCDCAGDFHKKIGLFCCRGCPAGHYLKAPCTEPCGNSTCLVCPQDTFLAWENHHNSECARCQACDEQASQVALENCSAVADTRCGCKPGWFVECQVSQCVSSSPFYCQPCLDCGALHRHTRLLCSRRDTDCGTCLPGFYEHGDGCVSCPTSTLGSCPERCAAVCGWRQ

T2: DcR3 (UniProt O95407 30-300, limits assumed)
T2 construct: the construct is not described; also called decoy receptor DcR3; TNFRSF6B
T2 sequence (looked up): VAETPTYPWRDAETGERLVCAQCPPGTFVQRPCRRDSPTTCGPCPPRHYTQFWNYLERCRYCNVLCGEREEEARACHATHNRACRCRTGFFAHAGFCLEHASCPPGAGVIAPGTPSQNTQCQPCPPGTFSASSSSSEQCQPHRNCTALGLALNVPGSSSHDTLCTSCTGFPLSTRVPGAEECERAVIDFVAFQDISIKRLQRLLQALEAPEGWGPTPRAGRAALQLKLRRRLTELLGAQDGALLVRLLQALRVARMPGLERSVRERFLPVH

B1: TL1W2 (His-TEV-hTL1A 72-251) (ligand)
chain: HHHHHHENLYFQGLKGQEFAPSHQQVYAPLRADGDKPRAHLTVVRQTPTQHFKNQFPALHWEHELGLAFTKNRMNYTNKFLLIPESGDYFIYSQVTFRGMTSECSEIRQAGRPNKPDSITVVITKVTDSYPEPTQLLMGTKSVCEVGSNWFQPIYLGAMFSLQEGDKLMVNVSDISLVDYTKEDKTFFGAFLL
notes: Non-covalent trimer; entry holds the His-TEV tag; also called His-TL1A; His-TL1A (TL1W2)
B2: TL1W38 (His-TEV-TL1A L123K) (ligand)
chain: B1 chain with L65K
notes: also called TL1W38 (L123K)
B3: TL1W45 (His-TEV-TL1A E190F) (ligand)
chain: B1 chain with E132F
notes: also called TL1W45 (E190F)
B4: TL1W80 (His-TEV-TL1A K111A) (ligand)
chain: B1 chain with K53A
notes: also called TL1W80 (K111A)
B5: TL1W92 (His-TEV-TL1A M158Y) (ligand)
chain: B1 chain with M100Y
notes: also called TL1W92 (M158Y)
B6: TL1W95 (His-TEV-TL1A Q167A) (ligand)
chain: B1 chain with Q109A
notes: also called TL1W95 (Q167A)
B7: TL1W109 (His-TEV-TL1A S187L) (ligand)
chain: B1 chain with S129L
notes: also called TL1W109 (S187L)
B8: TL1W122 (His-TEV-TL1A N207F) (ligand)
chain: B1 chain with N149F
notes: also called TL1W122 (N207F)
B9: TL1W34 (C162S, C202S) (ligand)
chain: B1 chain with C104S, C144S
notes: also called TL1A-C162S, C202S; C162S, C202S TL1A variant
B10: TL1W35 (C202S) (ligand)
chain: B1 chain with C144S
B11: TL1W126 (His-TEV-TL1A F209W) (ligand)
chain: B1 chain with F151W
notes: also called TL1W126 (F209W)
B12: TL1W127 (His-TEV-TL1A Y238A) (ligand)
chain: B1 chain with Y180A
notes: also called TL1W127 (Y238A)
B13: TL1W129 (His-TEV-TL1A Y238K) (ligand)
chain: B1 chain with Y180K
notes: also called TL1W129 (Y238K)
B14: TL1W131 (His-TEV-TL1A Y238E) (ligand)
chain: B1 chain with Y180E
notes: also called TL1W131 (Y238E)
B15: TL1W132 (His-TEV-TL1A T239A) (ligand)
chain: B1 chain with T181A
notes: also called TL1W132 (T239A)
B16: TL1W136 (His-TEV-TL1A K240F) (ligand)
chain: B1 chain with K182F
notes: also called TL1W136 (K240F)
B17: TL1W137 (His-TEV-TL1A K240S) (ligand)
chain: B1 chain with K182S
notes: also called TL1W137 (K240S)
B18: TL1W19 (His-TEV-TL1A-TL1A-TL1A) (ligand)
chain: HHHHHHENLYFQGAPLRADGDKPRAHLTVVRQTPTQHFKNQFPALHWEHELGLAFTKNRMNYTNKFLLIPESGDYFIYSQVTFRGMTSECSEIRQAGRPNKPDSITVVITKVTDSYPEPTQLLMGTKSVCEVGSNWFQPIYLGAMFSLQEGDKLMVNVSDISLVDYTKEDKTFFGAFLLAPLRADGDKPRAHLTVVRQTPTQHFKNQFPALHWEHELGLAFTKNRMNYTNKFLLIPESGDYFIYSQVTFRGMTSECSEIRQAGRPNKPDSITVVITKVTDSYPEPTQLLMGTKSVCEVGSNWFQPIYLGAMFSLQEGDKLMVNVSDISLVDYTKEDKTFFGAFLLAPLRADGDKPRAHLTVVRQTPTQHFKNQFPALHWEHELGLAFTKNRMNYTNKFLLIPESGDYFIYSQVTFRGMTSECSEIRQAGRPNKPDSITVVITKVTDSYPEPTQLLMGTKSVCEVGSNWFQPIYLGAMFSLQEGDKLMVNVSDISLVDYTKEDKTFFGAFLL
notes: Single-chain trimer, three TL1A copies in one chain; also called His-scTL1A; His-scTL1A (TL1W19)

What follows are binders tested against T1, Recombinant DR3-Fc (R&D Systems, cat. …) (assay: ELISA, DR3-Fc immobilized).
Protocol: (§1) All ELISA-based measurements were collected in triplicate, and error values report the standard error between measurements. Recombinant DR3-Fc (R&D Systems, cat. #943-D3), dimeric MW˜92 kDa, was non-specifically immobilized onto plates (Nunc maxisorp, cat. #436110) in 100 μL DR3-Fc, diluted to 10 μg/mL onto a 96-well White Maxisorp plate (Nunc, cat #436110) (O/N, 4° C.). Plates were block for 1 hour at room temperature with 250 μl/well of casein buffer and blocking buffer was removed. 50 μL of TL1A variants were diluted in StartingBlock PBS (Thermo Fisher Scientific), at 25 μg/mL, diluting 3× over each well, according to the plate map description for 20160623) per well on a 96-well White Maxisorp plate (Nunc, cat #: 436110) (overnight at 4° C.).
(§2) Plates were washed three times with TBST. 100 μl/well polyclonal rabbit anti-human TL1A-biotin antibody (diluted 1:1000 in Starting Block PBS) was added and plates were incubated for 1 hour at room temperature with shaking at 150 rpm. TL1A-biotin antibody was removed and 100 μl/well streptavidin-HRP conjugate (diluted 1:10,000 in Starting Block PBS) was added to plates. Plates were incubated for 1 hour at room temperature with shaking at 150 rpm. Plates were washed three times with TBST. 100 μl/well POD Chemiluminescence substrate (Roche, cat #: 11582950001) was added immediately prior to reading plate luminescence using a Molecular Devices M5 plate reader with a delay setting of 100 ms.
These combination mutants were tested for binding to DR3 and DcR3 (FIGS. 5E and 5F, respectively).
With B1 the EC50 was 26.2 nM and the “Rel EC50” value was 1 ratio. In the case of B2, the EC50 is reported as 29.4 nM and the “Rel EC50” value is reported as 1.1 ratio. With B3 the EC50 was 31.4 nM and the “Rel EC50” value was 1.2 ratio. B4 was tested, and the EC50 was 30 nM and the “Rel EC50” value was 1.1 ratio. With B5 the EC50 was 16.6 nM and the “Rel EC50” value was 0.6 ratio. B6 was tested, and the EC50 was 17.1 nM and the “Rel EC50” value was 0.7 ratio. In the case of B7, the EC50 is reported as 17.7 nM and the “Rel EC50” value is reported as 0.7 ratio. In the case of B8, the EC50 is reported as 30.2 nM and the “Rel EC50” value is reported as 1.2 ratio.

Each binder was assayed against T1, Recombinant DR3-Fc (R&D Systems, cat. …) (assay: ELISA (FIG. 4C)).
Protocol: as §1
as §2, with “Plates were incubated for 1 hour at room temperature with shaking at 150 rpm. Plates were washed three times with TBST.” left out
B9: no binding. B10: no binding.

Each binder was assayed against T2, DcR3 (assay: ELISA, DcR3).
With B1 the EC50 was 4.6 nM and the “Rel EC50” value was 1 ratio (head: nM). B2 was tested, and the EC50 was 24.7 nM and the “Rel EC50” value was 5.4 ratio (head: nM). For B4, the EC50 was 16.3 nM and the “Rel EC50” value was 3.5 ratio (head: nM). B5 was tested, and the EC50 was 12.6 nM and the “Rel EC50” value was 2.7 ratio (head: nM). With B6 the EC50 was 32 nM and the “Rel EC50” value was 7 ratio (head: nM). With B7 the EC50 was 15.5 nM and the “Rel EC50” value was 3.4 ratio (head: nM). With B8 the EC50 was 10.6 nM and the “Rel EC50” value was 2.3 ratio (head: nM). B11 was tested, and the EC50 was 13.7 nM and the “Rel EC50” value was 3 ratio (head: nM). B12 was tested, and the EC50 was 8.9 nM and the “Rel EC50” value was 1.9 ratio (head: nM). For B13, the EC50 was 9 nM and the “Rel EC50” value was 2 ratio (head: nM). B14 was tested, and the EC50 was 6.6 nM and the “Rel EC50” value was 1.4 ratio (head: nM). B15 was tested, and the EC50 was 27.2 nM and the “Rel EC50” value was 5.9 ratio (head: nM). B16 was tested, and the EC50 was 178 nM and the “Rel EC50” value was 38.7 ratio (head: nM). For B17, the EC50 was 11.8 nM and the “Rel EC50” value was 2.6 ratio (head: nM).

Biological target: T1, Recombinant DR3-Fc (R&D Systems, cat. …)
Assay: ELISA, DR3-Fc immobilized
Remark: another data set of the same source
Method in brief: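 DR3-Fc (10 μg/mL) was coated overnight at 4 °C, blocked with casein, then incubated overnight at 4 °C with TL1A variants from 25 μg/mL in 3-fold dilutions. Bound TL1A was detected with biotinylated rabbit anti-human TL1A and streptavidin-HRP, read by chemiluminescence; triplicates, errors as standard error.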
In the case of B1, the EC50 is reported as 26.2 nM and the “Rel EC50” value is reported as 1 ratio (head: nM). B2 was tested, and the EC50 was 29.5 nM and the “Rel EC50” value was 1.1 ratio (head: nM). In the case of B3, the EC50 is reported as 31.4 nM and the “Rel EC50” value is reported as 1.2 ratio (head: nM). For B4, the EC50 was 30 nM and the “Rel EC50” value was 1.1 ratio (head: nM). For B5, the EC50 was 16.6 nM and the “Rel EC50” value was 0.6 ratio (head: nM). For B6, the EC50 was 17.1 nM and the “Rel EC50” value was 0.7 ratio (head: nM). B7 was tested, and the EC50 was 17.7 nM and the “Rel EC50” value was 0.7 ratio (head: nM). For B8, the EC50 was 30.2 nM and the “Rel EC50” value was 1.2 ratio (head: nM). With B11 the EC50 was 56.8 nM and the “Rel EC50” value was 2.2 ratio (head: nM). B12 was tested, and the EC50 was 4620 nM and the “Rel EC50” value was 176 ratio (head: nM). For B13, the EC50 was 446 nM and the “Rel EC50” value was 17 ratio (head: nM). With B14 the EC50 was 300 nM and the “Rel EC50” value was 11.5 ratio (head: nM). B15 was tested, and the EC50 was 144 nM and the “Rel EC50” value was 5.5 ratio (head: nM). In the case of B16, the EC50 is reported as 266 nM and the “Rel EC50” value is reported as 10.1 ratio (head: nM). With B17 the EC50 was 336 nM and the “Rel EC50” value was 12.8 ratio (head: nM).

Biological target: T2, DcR3
Assay: ELISA, DcR3
Remark: another data set of the same source
With B1 the EC50 was 4.6 nM and the “Rel EC50” value was 1 ratio. Binder B2 has an EC50 of 24.7 nM. B3 was tested, and the EC50 was 21.2 nM. With B4 the EC50 was 89.8 nM. Binder B5 has an EC50 of 69.2 nM. Binder B6 has an EC50 of 176 nM. For B7, the EC50 was 85.5 nM. B8 was tested, and the EC50 was 58.5 nM.

Each binder was assayed against T1, Recombinant DR3-Fc (R&D Systems, cat. …) (assay: ELISA).
In the case of B18, the “fold weaker EC50 than other molecules” value is reported as roughly 3 fold.

What follows are binders tested against T1, Recombinant DR3-Fc (R&D Systems, cat. …) (assay: ELISA, TL1A construct immobilized, DR3 titrated).
B1 showed an EC50 of 2.5 nM.

Biological target: T1, Recombinant DR3-Fc (R&D Systems, cat. …)
Assay: ELISA, DR3-Fc immobilized
Remark: another data set of the same source
Protocol: as §1
as §2, with “Plates were incubated for 1 hour at room temperature with shaking at 150 rpm. Plates were washed three times with TBST.” left out
With B1 the EC50 was 6.8 nM. B18 was tested, and the EC50 was 27.3 nM.
